The values that follow come from patent US20170002068A1 (YEDA RESEARCH AND DEVELOPMENT, published 2017).

First the molecules themselves.
B3: human amphiregulin (ligand, UniProt P15514 101-198, looked up)
chain: SVRVEQVVKPPQNKTESENTSDKPKRKKKGGKNGKNRRNRKKKNPCNAEFQNFCIHGECKYIEHLEAVTCKCQQEYFGERCGEKSMKTHSMIDSSLSK
notes: also called AREG; hAREG

Assay [1] has as its target B3. Description: ELISA, wells coated with human AREG at 0, 10, 50, 100, 500 ng/mL, antibody 2 h, anti-mouse-HRP, ABTS, absorbance 415 nm. On the procedure: Thereafter, wells were incubated for two hours with an anti-mouse antibody conjugated to HRP, followed by a 30 minute incubation with ATBS. Signals were determined using an ELISA reader (set at 415 nm).
For orientation: An ELISA detects its analyte on a solid surface through an enzyme-linked reagent.

Assay [2] addresses T1, human heparin-binding EGF-like growth factor (human, UniProt Q99075 63-148).
T1 construct: also called hHB-EGF; HB-EGF
The assay can be described thus: ELISA, wells coated with 400 ng/mL ligand, mAb 2 h, anti-mouse-HRP, ABTS, 415 nm (legend; the y axis has no title). On the procedure:
(§1) Thereafter, wells were incubated for two hours with an anti-mouse antibody conjugated to HRP, followed by a 30 minute incubation with ATBS. Signals were determined using an ELISA reader (set at 415 nm). […] Thereafter, wells were incubated for two hours with an anti-mouse antibody conjugated to HRP, followed by a 30-min incubation with ATBS. Signals were determined using an ELISA reader (set at 415 nm). […] Thereafter, wells were incubated for two hours with an anti-mouse antibody conjugated to HRP, followed by a 20-min incubation with ATBS. Signals were determined using an ELISA reader (set at 420 nm).

The target of assay [3] is T2, murine amphiregulin (mouse, UniProt P31955 94-191, limits assumed).
T2 construct: also called mAREG; murine AREG
T2 sequence (looked up): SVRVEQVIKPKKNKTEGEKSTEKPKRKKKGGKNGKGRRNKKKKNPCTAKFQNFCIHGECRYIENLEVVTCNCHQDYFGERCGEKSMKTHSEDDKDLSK
The assay is described as above. As to the method: as §1

Assay [4] deals with T3, human epidermal growth factor (human, UniProt P01133 971-1023).
T3 construct: also called hEGF; EGF
Description: ELISA, wells coated with ligand at 400, 200, 100, 50, 25 and 10 ng/mL, mAb 1 µg/mL 2 h, anti-mouse-HRP, ABTS; absorbance 415 nm on the sheet. As to the method: as §1

Assay [5] addresses B3. The assay can be described thus: SPR (BIAcore 3000), ligand in solution over AR30-coated surface. As to the method:
(§2) SPR was performed on a BIAcore 3000 instrument (BIAcore, Uppsala, Sweden). Proteins were diluted in 100 mM Na-acetate (pH 4.6) to 20 μg/ml and immobilized on a CM5 sensor chip using a standard protocol of amine coupling. The protein solution was flown over the chip for 5 minutes at a rate of 20 μl/min. […] The net signal was obtained by subtracting the blank signal (plain dextran matrix) from the signal recorded from the immobilized surface. The association phase for analyte binding to all ligands was followed for 4 minutes, and dissociation phases were monitored for 3 minutes. Surface regeneration between consecutive binding cycles included a 1 min injection of 2 mM NaOH. The response was monitored as a function of time (sensorgram). Multi-concentration data underwent fitting using the software BIAevaluation 3.2.
For orientation: Surface plasmon resonance follows binding to a sensor surface in real time, without labels.

For assay [6], the target named is T4, murine heparin-binding EGF-like growth factor (mouse, UniProt Q06186 63-148, limits assumed).
T4 construct: also called mHB-EGF
T4 sequence (looked up): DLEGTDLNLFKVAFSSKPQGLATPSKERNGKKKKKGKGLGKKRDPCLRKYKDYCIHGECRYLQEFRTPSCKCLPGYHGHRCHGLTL
Described as above. On the procedure: as §2

Assay [7] has as its target T3, human epidermal growth factor. Described as above. On the procedure:
as §2

In assay [8] the target is T1, human heparin-binding EGF-like growth …. The assay is described as above. As to the method: as §2
Assay [9] concerns the target T5, human transforming growth factor alpha (human, UniProt P01135 40-89).
T5 construct: also called hTGF-alpha; TGF-alpha
The assay is described as above. As to the method:
as §2

The target in assay [10] is T2, murine amphiregulin. The assay is described as above. On the procedure:
as §2

For assay [11], the target named is T6, human epigen (human, UniProt Q6UW88 24-104, limits assumed).
T6 construct: also called hEPG; EPG
The assay is described as above. As to the method:
as §2

The target of assay [12] is T7, human betacellulin (human, UniProt P35070 32-111).
T7 construct: also called hBTC; BTC
T7 sequence (looked up): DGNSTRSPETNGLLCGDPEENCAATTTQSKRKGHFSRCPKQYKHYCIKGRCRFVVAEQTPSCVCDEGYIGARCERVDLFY
Described as above. On the procedure:
as §2

Assay [13] has as its target T8, human neuregulin 1 (human, UniProt Q02297-6 177-241, limits assumed).
T8 construct: also called hNRG1; NRG1
T8 sequence (looked up): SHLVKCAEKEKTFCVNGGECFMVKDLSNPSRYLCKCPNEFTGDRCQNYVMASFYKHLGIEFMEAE
Described as above. On the procedure: as §2

The target in assay [14] is T9, Epidermal Growth Factor Receptor (human, UniProt P00533 25-1210). Description: cell-based or functional assay.
Assay [15] concerns the target T9, Epidermal Growth Factor Receptor. The assay can be described thus: displacement of 125I-EGF (50 ng/mL) by unlabeled ligand on MCAS ovarian cancer cells, on ice. On the procedure: (§3) The cells were later washed and lysed, and the associated radioactivity was determined. […] The cells were later washed and lysed in 1 N NaOH. Cell-associated radioactivity was determined. […] Washed immunocomplexes, along with whole extracts, were immunoblotted with the indicated antibodies.

Assay [16] shares this target. Description: displacement of 125I-EGF (50 ng/mL) from MCAS ovarian cancer cells by unlabeled ligand, 3 h on ice, cell-associated radioactivity. On the procedure: as §3
In general terms: Displacement assays read how much labelled ligand stays bound in the presence of the test substance.

T3 sequence (P01133 971-1023 limits assumed): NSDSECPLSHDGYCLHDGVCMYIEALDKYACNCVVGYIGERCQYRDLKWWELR
T1 sequence (Q99075 63-148 limits assumed): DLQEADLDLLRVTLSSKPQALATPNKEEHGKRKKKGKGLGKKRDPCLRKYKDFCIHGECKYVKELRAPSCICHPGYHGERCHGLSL
T6 sequence (Q6UW88 24-104 limits assumed): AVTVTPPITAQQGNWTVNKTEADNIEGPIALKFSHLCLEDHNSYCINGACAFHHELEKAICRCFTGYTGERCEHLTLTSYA

B1: AR558, anti-AREG monoclonal antibody (antibody, V domains shown)
VH: EVQLQQSGAELVKPGASVKLSCTASGFNIKDTYMHWVKQRPEQGLEWIGRIDPANRSTKYDPKFQGKATITADTSSNTADLHLSSLTSEDTAVYYCARLYGDSVWYFDVWGAGTTVTVSS
VL: QIVLTQSPAILSASPGEKVTMTCRAGSSVNYIHWYQQKPGSSPKPWIYATSNLASGVPARFSGSGSGTSYSLTISRVEAEDAATYYCQQWSGYPPMLTFGAGTKLELKR
notes: Mouse hybridoma mAb generated in AREG knockout mice; they may cover only the variable regions; also called mAb AR558
In the case of B1, the binding result in assay [1] is “binds”; in assay [2], “no binding (tested: 400 ng/mL coated ligand)”; in assay [3], “no binding (tested: 400 ng/mL coated ligand)”; in [4], “no binding (tested: 400 ng/mL coated ligand, mAb 1 µg/mL)”.

B2: AR30, anti-AREG monoclonal antibody (antibody, V domains shown)
VH: EVQLQQSGAELVRSGASVKLSCTASGFNIKDSYMHWVKQRPEQGLEWIGWVDPDNGDTEYAPEFQGRATLTADTFSSTAYLQLTSLTSEDTAVYYCNAPSTYGHYGFAYWGQGTLVTVSA
VL: DIVMTQAAPSVPVTPGESVSISCRSSKSLLHSNGKAYLYWFLQRPGQSPQLLIYRMSNLASGVPDRFSGSGSGTAFTLRISRVEAEDVGVYYCMQHLEYPLTFGAGTKLELKR
notes: Mouse hybridoma mAb raised against TRX-fused EGF-like domain of human AREG; they may cover only the variable regions; also called mAb AR30; AR30 mAb
For B2, the Kd was 0.0017 µM in assay [5]; 6.65 µM in assay [6]; over 10 µM in assay [7]; 0.08 µM in [8]; over 10 µM in assay [9]; over 10 µM in assay [10]. Further, the Kd in assay [11], in assay [12] and in assay [13] was over 10 µM each time.

For the molecule B3, the “endocytosis-mediated downregulation of EGFR (MCAS cells, 125I-EGF binding after stimulation)” value in [14] was about 30%. Also, the “fold lower binding affinity compared to EGF” value in assay [15] was about 100 fold. For the same molecule, the “IC50 (read off the curve)” value in assay [16] is about 0.1 µg/mL.

In general, Kd refers to the constant that tells how readily two partners part at equilibrium. A low value points to a tighter complex.
